# Assay results published in the Human Domainome abundance scans (Beltran et al. 2025).
# ± gives the uncertainty stated by the source.
# B1: Proto-oncogene vav, residues 782 to 842; numbered along this chain, P15498 (parent)
# chain: KYFGTAKARYDFCARDRSELSLKEGDIIKILNKKGQQGWWRGEIYGRVGWFPANYVEEDYS
# Variants of: B1
# Assay: abundance fitness (aPCA) (normalised: wild type 0, dead -1); higher = more abundant; growth selection in yeast, the domain comes from the species named
# Details: Homo sapiens
row,Variant,abundance fitness
1,KYFGTAKARYDFCARDRSELSLKEGDIIKILNKKGQQGWWRQEIYGRVGWFPANYVEEDYS [G42Q],-0.963 ± 0.35
2,KYFGTAKARYDFCARDRSELSLKEGDIIKILNKKGQQGWWRPEIYGRVGWFPANYVEEDYS [G42P],-0.916 ± 0.26
3,KYFGTAKARYDFCARDRSELSLKEGDIIKILNKKGQQGWWRAEIYGRVGWFPANYVEEDYS [G42A],-0.523 ± 0.11
4,KYFGTAKARYDFCARDRSELSLKEGDIIKILNKKGQQGWWRREIYGRVGWFPANYVEEDYS [G42R],-0.398 ± 0.081
5,KYFGTAKARYDFCARDRSELSLKEGDIIKILNKKGQQGWWRDEIYGRVGWFPANYVEEDYS [G42D],-0.385 ± 0.21
6,KYFGTAKARYDFCARDRSELSLKEGDIIKILNKKGQQGWWRIEIYGRVGWFPANYVEEDYS [G42I],-0.832 ± 0.33
7,KYFGTAKARYDFCARDRSELSLKEGDIIKILNKKGQQGWWRSEIYGRVGWFPANYVEEDYS [G42S],-0.787 ± 0.12
8,KYFGTAKARYDFCARDRSELSLKEGDIIKILNKKGQQGWWRFEIYGRVGWFPANYVEEDYS [G42F],-1.02 ± 0.4
9,KYFGTAKARYDFCARDRSELSLKEGDIIKILNKKGQQGWWRMEIYGRVGWFPANYVEEDYS [G42M],-0.748 ± 0.15
10,KYFGTAKARYDFCARDRSELSLKEGDIIKILNKKGQQGWWRLEIYGRVGWFPANYVEEDYS [G42L],-0.788 ± 0.11
11,KYFGTAKARYDFCARDRSELSLKEGDIIKILNKKGQQGWWRTEIYGRVGWFPANYVEEDYS [G42T],-0.825 ± 0.16
12,KYFGTAKARYDFCARDRSELSLKEGDIIKILNKKGQQGWWREEIYGRVGWFPANYVEEDYS [G42E],-0.809 ± 0.26
13,KYFGTAKARYDFCARDRSELSLKEGDIIKILNKKGQVGWWRGEIYGRVGWFPANYVEEDYS [Q37V],-0.024 ± 0.069
14,KYFGTAKARYDFCARDRSELSLKEGDIIKILNKKGQTGWWRGEIYGRVGWFPANYVEEDYS [Q37T],-0.135 ± 0.11
15,KYFGTAKARYDFCARDRSELSLKEGDIIKILNKKGQKGWWRGEIYGRVGWFPANYVEEDYS [Q37K],-0.022 ± 0.22
16,KYFGTAKARYDFCARDRSELSLKEGDIIKILNKKGQWGWWRGEIYGRVGWFPANYVEEDYS [Q37W],-0.189 ± 0.12
17,KYFGTAKARYDFCARDRSELSLKEGDIIKILNKKGQMGWWRGEIYGRVGWFPANYVEEDYS [Q37M],-0.105 ± 0.12
18,KYFGTAKARYDFCARDRSELSLKEGDIIKILNKKGQSGWWRGEIYGRVGWFPANYVEEDYS [Q37S],0.02 ± 0.071
19,KYFGTAKARYDFCARDRSELSLKEGDIIKILNKKGQNGWWRGEIYGRVGWFPANYVEEDYS [Q37N],-0.086 ± 0.22
20,KYFGTAKARYDFCARDRSELSLKEGDIIKILNKKGQIGWWRGEIYGRVGWFPANYVEEDYS [Q37I],-0.292 ± 0.14
21,KYFGTAKARYDFCARDRSELSLKEGDIIKILNKKGQRGWWRGEIYGRVGWFPANYVEEDYS [Q37R],-0.048 ± 0.063
22,KYFGTAKARYDFCARDRSELSLKEGDIIKILNKKGQYGWWRGEIYGRVGWFPANYVEEDYS [Q37Y],0.048 ± 0.11

row,Variant,abundance fitness
1,KYFGTAKARYDFCARDRSELSLKEGDIIKILNKKGQLGWWRGEIYGRVGWFPANYVEEDYS [Q37L],-0.106 ± 0.056
2,KYFGTAKARYDFCARDRSELSLKEGDIIKILNKKGQPGWWRGEIYGRVGWFPANYVEEDYS [Q37P],0.039 ± 0.088
3,KYFGTAKARYDFCARDRSELSLKEGDIIKILNKKGQQGSWRGEIYGRVGWFPANYVEEDYS [W39S],-0.599 ± 0.08
4,KYFGTAKARYDFCARDRSELSLKEGDIIKILNKKGQQGHWRGEIYGRVGWFPANYVEEDYS [W39H],-0.513 ± 0.2
5,KYFGTAKARYDFCARDRSELSLKEGDIIKILNKKGQQGRWRGEIYGRVGWFPANYVEEDYS [W39R],-0.241 ± 0.049
6,KYFGTAKARYDFCARDRSELSLKEGDIIKILNKKGQQGIWRGEIYGRVGWFPANYVEEDYS [W39I],-0.408 ± 0.098
7,KYFGTAKARYDFCARDRSELSLKEGDIIKILNKKGQQGEWRGEIYGRVGWFPANYVEEDYS [W39E],-0.795 ± 0.27
8,KYFGTAKARYDFCARDRSELSLKEGDIIKILNKKGQQGMWRGEIYGRVGWFPANYVEEDYS [W39M],-0.028 ± 0.07
9,KYFGTAKARYDFCARDRSELSLKEGDIIKILNKKGQQGGWRGEIYGRVGWFPANYVEEDYS [W39G],-0.978 ± 0.17
10,KYFGTAKARYDFCARDRSELSLKEGDIIKILNKKGQQGAWRGEIYGRVGWFPANYVEEDYS [W39A],-0.614 ± 0.15
11,KYFGTAKARYDFCARDRSELSLKEGDIIKILNKKGQQGTWRGEIYGRVGWFPANYVEEDYS [W39T],-0.385 ± 0.078
12,KYFGTAKARYDFCARDRSELSLKEGDIIKILNKKGQQGNWRGEIYGRVGWFPANYVEEDYS [W39N],-0.674 ± 0.15
13,KYFGTAKARYDFCARDRSELSLKEGDIIKILNKKGQQGFWRGEIYGRVGWFPANYVEEDYS [W39F],-0.354 ± 0.097
14,KYFGTAKARYDFCARDRSELSLKEGDIIKILNKKGQQGQWRGEIYGRVGWFPANYVEEDYS [W39Q],-0.317 ± 0.079
15,KYFGTAKARYDFCARDRSELSLKEGDIIKILNKKGQQGPWRGEIYGRVGWFPANYVEEDYS [W39P],-0.807 ± 0.12
16,KYFGTAKARYDFCARDRSELSLKEGDIIKILNKKGQQGLWRGEIYGRVGWFPANYVEEDYS [W39L],-0.268 ± 0.055
17,KYFGTAKARYDFCARDRSELSLKEGDIIKILNKKGQQGWWKGEIYGRVGWFPANYVEEDYS [R41K],0.008 ± 0.08
18,KYFGTAKARYDFCARDRSELSLKEGDIIKILNKKGQQGWWMGEIYGRVGWFPANYVEEDYS [R41M],0.024 ± 0.078
19,KYFGTAKARYDFCARDRSELSLKEGDIIKILNKKGQQGWWGGEIYGRVGWFPANYVEEDYS [R41G],-0.691 ± 0.11
20,KYFGTAKARYDFCARDRSELSLKEGDIIKILNKKGQQGWWLGEIYGRVGWFPANYVEEDYS [R41L],0.031 ± 0.049
21,KYFGTAKARYDFCARDRSELSLKEGDIIKILNKKGQQGWWHGEIYGRVGWFPANYVEEDYS [R41H],-0.113 ± 0.12
